Source: article PMC12051542, “Identification of the phosphatase essential for riboflavin biosynthesis in Aquifex aeolicus” (The Journal of Biological Chemistry, 2025)

B1: putative phosphatase 11 (PP11), annotated as a myo-inositol-1(or 4)-monophosphatase (IMP), Aquifex aeolicus (enzyme)
chain: MENLKKYLEVAKIAALAGGQVLKENFGKVKKENIEEKGEKDFVSYVDKTSEERIKEVILKFFPDHEVVGEEMGAEGSGSEYRWFIDPLDGTKNYINGFPIFAVSVGLVKGEEPIVGAVYLPYFDKLYWGAKGLGAYVNGKRIKVKDNESLKHAGVVYGFPSRSRRDISIYLNIFKDVFYEVGSMRRPGAAAVDLCMVAEGIFDGMMEFEMKPWDITAGLVILKEAGGVYTLVGEPFGVSDIIAGNKALHDFILQVAKKYMEVAV
notes: Aquifex aeolicus putative phosphatase 11, annotated as myo-inositol-1(or 4)-monophosphatase; codon optimised, in pET20b with a stop codon before the C-terminal histidine tag so that the protein is expressed in the native form; Untagged; Two magnesium ions and a phosphate in the active site of the structure; source: E. coli BL21 (DE3), purified (heat 70 °C, gel filtration)

Legend:
[1] = biological target: putative phosphatase 17 (PP17), a histidine family phosphatase (HFP), Aquifex aeolicus (Aquifex aeolicus); assay: SEC; preparative gel filtration, 120 ml HiLoad 16/600 Superdex 75 prep grade column, 50 mM Hepes pH 8.0, 150 mM NaCl, 20% glycerol
[2] = biological target: the molecule itself; assay: SEC; 120 ml HiLoad 16/600 Superdex 75 prep grade column, 50 mM Hepes pH 8.0, 150 mM NaCl, 20% glycerol; molecular weight from a standard curve of commercial standard proteins (65 kDa)

Molecule	stoichiometry N [1]	stoichiometry N [2]
putative phosphatase 17 (PP17), a histidine family phosphatase (HFP), Aquifex aeolicus (enzyme)	2	
B1		2
